What was measured:
[1] = tested on: subjects diagnosed with chronic fatigue syndrome and with DAO deficit; assay: Efficacy of DAO compositions in chronic fatigue syndrome, grades of improvement on the CLINIC scale; format: in vivo, human; conditions: chronic fatigue syndrome grades II, III and IV with DAO deficit, 4 mg DAO twice a day, count of 23 subjects
Procedure: Oral compositions containing DAO of the present invention were tested in a total of 46 subjects diagnosed with chronic fatigue syndrome, as out-patients.
To evaluate the degree of affectation of chronic fatigue syndrome in candidate study subjects, the quality of life of these subjects was evaluated using a simple scale of 4 successive grades (I, II, III and IV), with criteria used in the clinic. This scale is used in the Chronic Fatigue Syndrome (CFS) Functional Unit in the Hospital Clinic.
The CLINIC scale consists of dividing the patients with chronic fatigue syndrome into four different grades of functional affectation depending on the effect of their fatigue on quality of life:
GRADE I: the patient is sometimes or occasionally fatigued, without significant limitation (<50%) of work or daily life activities.
GRADE II: persistent presence of fatigue, oscillating but without improvement, with marked effect (>50%) on work and also daily life activities.
GRADE IV: extreme fatigue that requires the help of other people for basic personal activities and that makes autonomy and the activities of daily life impossible.
Improvement is evaluated when the patient passes from a higher to a lower grade in terms of the number of improvement grades.

[2] = tested on: histamine level in blood; assay: Histamine level in blood of chronic fatigue syndrome subjects; format: in vivo, human; conditions: 4 mg DAO twice a day

B1: diamine oxidase (protein, UniProt P19801 20-751, looked up)
Diamine oxidase …: EPSPGTLPRKAGVFSDLSNQELKAVHSFLWSKKELRLQPSSTTTMAKNTVFLIEMLLPKKYHVLRFLDKGERHPVREARAVIFFGDQEHPNVTEFAVGPLPGPCYMRALSPRPGYQSSWASRPISTAEYALLYHTLQEATKPLHQFFLNTTGFSFQDCHDRCLAFTDVAPRGVASGQRRSWLIIQRYVEGYFLHPTGLELLVDHGSTDAGHWAVEQVWYNGKFYGSPEELARKYADGEVDVVVLEDPLPGGKGHDSTEEPPLFSSHKPRGDFPSPIHVSGPRLVQPHGPRFRLEGNAVLYGGWSFAFRLRSSSGLQVLNVHFGGERIAYEVSVQEAVALYGGHTPAGMQTKYLDVGWGLGSVTHELAPGIDCPETATFLDTFHYYDADDPVHYPRALCLFEMPTGVPLRRHFNSNFKGGFNFYAGLKGQVLVLRTTSTVYNYDYIWDFIFYPNGVMEAKMHATGYVHATFYTPEGLRHGTRLHTHLIGNIHTHLVHYRVDLDVAGTKNSFQTLQMKLENITNPWSPRHRVVQPTLEQTQYSWERQAAFRFKRKLPKYLLFTSPQENPWGHKRTYRLQIHSMADQVLPPGWQEEQAITWARYPLAVTKYRESELCSSSIYHQNDPWHPPVVFEQFLHNNENIENEDLVAWVTVGFLHIPHSEDIPNTATPGNSVGFLLRPFNFFPEDPSLASRDTVIVWPRDNGPNYVQRWIPEDRDCSMPPPFSYNGTYRPV
notes: Enzyme diamine oxidase
- Number of grades of improvement: 1 (subjects) [1]: 16 of 23
- Number of grades of improvement: 2 (subjects) [1]: 4 of 23
- Histamine level in blood [2]: 2-20 micrograms/0.1 L
